Test results as given in publication doi:10.1101/2023.11.17.567387.

Target: C. elegans DPF-3 (C. elegans)
Experiment: cryo-EM structure

stoichiometry N: 2
Substance: C. elegans DPF-3 (enzyme)
